Reference: patent US7932226B2, “NFκB transcriptional activity inhibitory agent and anti-inflammatory agent and a steroid action enhancing agent” (St. Marianna University School of Medicine, priority 2004, dated 2011)
Values belong to the molecule of their own block, whether it stands above or below them.

Legend:
[1] = system: transcriptional activity of NFκB; assay: NFκB-dependent luciferase assay in transfected COS-7 cells, TNFα-induced; assay type: cell-based
Procedure: COS-7 cells were plated into a 6-well plate (Falcon, catalog number: 35-3046) at 3.5 to 3.8×10^5 cells per well and cultured in a DMEM supplemented with 10% 56° C.-inactivated FBS (fetal bovine serum; HyClone, catalog number: SH30070.03) under the conditions of 5% CO2 and 37° C. After 18 hours, the medium was replaced with a DMEM containing charcoal-dextran treated (C/D treatment) FBS (C/D-FBS, HyClone, catalog number: SH30068.03). Each of the plasmids constructed in Example 2 was mixed as shown in Table 1 and each sample was prepared to be 4.12 μg and each was mixed with TransFast (product name) reagent (12.3 μl) and the mixture was incubated for 10 to 15 minutes. After the medium in each well was replaced, each plasmid DNA was added to the respective wells according to the amount shown in Table 1 and incubation was carried out for 1 hour, thus each DNA was transfected into COS-7 cells. The transfection efficiency was 34%. To the cells into which DNA was transfected as described above, after 24 hours, an inflammatory cytokine (TNFα, Sigma) at a final concentration of 1 ng/ml and a steroid agent (triamcinolone acetonide: TA, Sigma) at a final concentration of 120 nM were added. Further, after an additional 24 hours, luciferase activities in the cells were assayed using Dual Luciferase Assay System (Promega) by a luminometer (Turner BioSystems TD-20/20, Promega). The results are shown in FIG. 1, In FIG. 1, the luciferase activities indicating the transcriptional activity of NFκB is indicated on the vertical axis. The closed circles show the case where only TNFα was added, the closed triangles show the case where both TNFα and TA were added, the open triangles show the case where only TA was added and the open circles show the case where neither of TNFα nor TA was added, respectively.

[2] = MTI-II peptide administration experiment (behaviour and autopsy observation); assay type: in vivo; details: 10 mg/kg intraperitoneal, ICR mice
Procedure: MTI-II of SEQ ID NO: 1 (Gene Bank Accession No. M24398) was purified in accordance with the purification method described in the document (Eur. J. Biochem., (2000), 267, 155-162). It was dissolved in physiological saline at a concentration of 1.0 mg/ml and intraperitoneally administered to 5 male (an average body weight of 28.4 g) and 5 female (an average body weight of 25.0 g) ICR mice at 5 weeks of age at 10 mg/kg of body weight. As a control, physiological saline was administered to 2 male and 2 female ICR mice of the same age. […] At 24 hours after the administration, they were sacrificed and autopsy was carried out and the swelling of the liver, kidney, spleen, small intestine, large intestine and thymus and the swelling of the blood vessels in the abdominal cavity were observed by the naked eye. As a result, behavioral anomaly and the swelling of the liver, kidney, spleen, small intestine, large intestine, thymus and blood vessels were not observed in all specimens.

[3] = system: transcriptional activity of NFκB; assay: NFκB luciferase assay in the presence of coactivator p300; assay type: cell-based
Procedure: Then, in order to confirm the action site of MTI-II, the effect of MTI-II was investigated when a coactivator p300, which acts on the transcriptional activity of NFκB, was expressed.
A coactivator p300 expression plasmid (pCMVβ-p300) was purchased from Upstate. DNA transfection was carried out in the same manner as in Example 3 except that the amount of DNA was each 2.0 μg and the amount of pTri-NC or pTri-MTI was 1.0 μg. The NFκB transcriptional activity assay was carried out in the same manner as in Example 4.

[4] = system: transcriptional activity of NFκB; assay: NFκB luciferase assay in HeLa cells with added His-tag-TAT-MTI-II protein; assay type: cell-based; details: protein 30-300 μg per well added 6 hours before TNFα 1 ng/ml
Procedure: HeLa cells were plated into a 6-well plate at 2.0×10^5 cells per well and cultured in a DMEM (HyClone) supplemented with 10% FBS (fetal bovine serum) for 18 hours. Thereafter, the medium was replaced with a medium containing charcoal-dextran treated (C/D treatment) FBS (C/D-FBS). Further, after an additional 24 hours, each plasmid DNA blended in accordance with the amount shown in the following Table 2 was added to the respective wells, and these HeLa cells were transfected with NFκB-Luc gene.
At 24 hours after the transfection, to the HeLa cells in each well, the His-tag-TAT-MTI-II fusion protein prepared in Example 7 was added according to the amount shown in Table 3, and 6 hours thereafter, an inflammatory cytokine (TNFα, Sigma) was further added thereto in an amount to give a concentration of 1 ng/ml. After 24 hours, in the same manner as in Example 4, luciferase activities in the cells were assayed using Dual Luciferase Assay System (Promega).

[5] = OVA-sensitized rabbit knee joint inflammation model; assay type: in vivo, New Zealand White rabbits; details: rabbits, 0.4 mg/ml in PBS into the right knee joint, 10 administrations in 14 days
Procedure: For primary sensitization, ovalbumin (OVA)+Freund's complete adjuvant (FCA) was intradermally injected once in the dorsal area of three New Zealand White rabbits. After 2 weeks, for secondary sensitization, OVA+FCA was intradermally administered once in the dorsal area. Further, for challenge administration, at 5 days after the secondary sensitization, OVA was administered once into the right knee joint. A His-tag-TAT-MTI-II solution (at 0.4 mg/ml in PBS solution) was administered into the right knee joint every other day starting from one day before the challenge administration of OVA. Incidentally, during 5 days from the next day of the challenge administration of OVA, the His-tag-TAT-MTI-II solution was administered once daily. The administration period was 14 days (number of administration: 10 times in total), and in a control group, PBS was administered into the right knee joint. An anti-inflammatory action was examined based on the blood sedimentation rate measurement and the pathological specimens of both knee joints.

Molecule: TNFα [reference compound]
- luciferase activity (transcriptional activity of NFκB) versus no TNFα ([1]; TNFα 1 ng/ml only, MTI-II 0 μg): about 10 times

- transcriptional activity of NFκB compared with the case where MTI-II was not expressed ([3]; MTI-II expressed together with p300, TNFα (pTri-MTI 1.0 μg)): inhibited to about half or more
- transcriptional activity of NFκB compared with the case where MTI-II was not expressed ([3]; MTI-II expressed together with p300, TNFα, steroid agent further added): inhibited to about half or more
- transcriptional activity of NFκB compared with the absence of the coactivator ([3]; MTI-II with p300, TNFα, used together with the steroid agent): inhibited to about half
B1: MTI-II: 102 amino acid polypeptide (SEQ ID NO: 2), same sequence as parathymosin; encoded by SEQ ID NO: 1 (protein, listed as Homo sapiens)
chain: MSEKSVEAAAELSAKDLKEKKDKVEEKAGRKERKKEVVEEEENGAEEEEEETAEDGEDDDEGDEEDEEEEEEEDEGPVRKRTAEEEDEADPKRQKTENGASA
- swelling of the liver, kidney, spleen, small intestine, large intestine, thymus and blood vessels ([2]; autopsy at 24 hours, naked eye): not observed
- behavioral anomaly ([2]; observed for 24 hours): not observed
- transcriptional activity of NFκB ([1]; TNFα 1 ng/ml, MTI-II expressed (0-3.0 μg vector)): inhibited depending on the amount of MTI-II
- NFκB transcriptional activity ([1]; TNFα, simultaneous use of MTI-II and the steroid agent (TA 120 nM)): inhibited further more

B2: His-tag-TAT-MTI-II: His-tag-TAT-MTI-II fusion protein (SEQ ID NO: 11) expressed in E. coli (protein)
chain: MAHHHHHHSLVPRGSRRRQRRKKRGLQMSEKSVEAAAELSAKDLKEKKDKVEEKAGRKERKKEVVEEEENGAEEEEEETAEDGEDDDEGDEEDEEEEEEEDEGPVRKRTAEEEDEADPKRQKTENGASA
modifications: HisTag-TAT-MTI-II
- transcriptional activity of NFκB [4]: inhibited depending on the amount of TAT-MTI-II
- anti-inflammatory action (blood sedimentation rate, pathological specimens of knee joints) [5]: anti-inflammatory effect
